According to the supplement of paper PMC10567573:

B1: KLHL12 (parent)
chain: LDYTADEDGVWYSVAPMNVRRGLA
B2: SLC25A39 (parent)
chain: LTSDLYAPMVAGALARLGTVTVIS

Variants of: B1
Assay: protein stability index of a GFP-peptide fusion (GPS, HEK-293T) (PSI 1-6); higher = more stable
Details: c terminus: a fixed tail appended
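Note: lentivirally expressed fusions sorted by FACS into six bins by GFP to DsRed ratio, PSI derived from sequencing read proportions per bin multiplied by bin number.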

Protein stability index: each site, then its substitutions
L23: S 2.66; P 2.35; G 2.29; Q 2.9; I 1.74; M 2.38; W 1.37; Y 1.99; F 1.83; E 2.41; H 2.28; C 1.93; V 1.79; D 2.46; K 2; R 2.82; T 2.19; A 2.68; N 2.77
R21: I 2.04; M 1.32; F 2.85; E 2.21; L 2.93; N 1.65; S 1.72; W 1.71; C 2.63; H 1.75; D 1.88; K 1.8; Q 1.71; A 2.39; T 2.72; V 2.19; Y 1.47; P 1.8; G 1.78
P16: D 3.07; K 1.95; L 2.41; R 2.25; G 2.08; H 2.57; T 2.62; Y 2.56; I 1.79; N 2.24; Q 2.16; W 1.59; C 1.72; E 3.28; V 1.85; F 1.84; S 1.79; M 1.88; A 2.33
V19: E 1.86; S 2.62; F 1.78; Y 1.78; W 1.66; M 1.52; G 1.95; K 2.65; D 2.32; I 2.42; N 2.72; A 1.93; H 2.98; C 1.7; T 1.91; P 2.11; R 2.61; L 2.22; Q 2.49
M17: D 2.47; I 3.28; V 2.59; A 2.45; Q 2.46; N 2.54; R 3.34; E 2.59; P 2.58; S 2.64; T 2.48; G 2.28; H 2.41; L 1.74; K 2.71; C 2.01; W 1.89; F 1.55; Y 1.86
S13: Y 2.21; H 3.65; F 2.6; W 1.37; N 2.13; V 2.28; D 3.34; T 1.92; A 1.71; G 2.69; Q 2.06; I 1.43; M 1.92; L 1.89; P 2.57; C 1.97; E 2.77; R 1.94; K 2.29
A24: L 2.77; M 1.75; K 2.35; F 2.2; P 2.24; D 1.82; Q 2.03; C 1.77; W 2.46; H 2.13; N 2.25; Y 2.39; G 2.17; I 1.88; T 2.11; S 2.17; E 1.87; R 1.97; V 2.26
A15: V 1.76; I 1.76; K 2.13; W 1.57; E 2.29; T 2.04; Q 2.24; D 2.32; F 1.82; C 1.74; H 1.7; G 2.06; R 2.19; S 1.83; Y 2.04; P 2.76; L 2.08; N 2.33; M 1.76
V14: H 3.39; I 1.67; C 2.5; T 3; S 2.96; L 1.82; P 2.63; F 2.18; A 2.76; E 3.61; M 2.33; G 2.83; R 3.33; D 3.79; Q 3.31; N 2.83; Y 2.83; K 4.17; W 2
Y12: W 2.3; T 3.12; V 2.32
G22: P 2.21; H 1.56; R 2.15; Q 2.22; A 1.5; D 1.79; K 2.23; I 2.16; Y 2.17; E 2.17; V 1.35; W 1.48; M 1.95; S 1.72; N 1.62; L 2; C 2.27; T 2.31; F 1.51
N18: I 2.47; E 1.83; G 2.54; S 2.01; K 1.54; H 1.95; P 2.57; F 2.19; A 1.92; W 2.37; M 1.46; V 2.35; D 2.2; T 1.77; C 1.35; Q 1.58; Y 2.24; L 1.97
R20: W 2.05; A 2.1; F 1.7; P 1.81; V 2.49; S 2.31; M 2.4; D 2.65; T 2.69; G 1.72; Y 1.97; K 1.89; H 1.75; E 3.32; Q 1.89; L 2.26; I 1.98; C 1.54; N 1.74

Variants of: B2
Assay: as above
Details: c terminus: a fixed tail appended

Protein stability index, by site and new letter:
D4: P 2.89; Q 2.88; S 2.07; R 3.25; Y 5.3; C 4.74; W 3.9; V 3.22; T 2.84
L1: K 2.83; C 2.18; Q 1.84; A 3.53; P 1.62; N 2.77; S 1.41; I 1.96; E 2.24; V 1.88; H 2.01; T 1.75; G 2.72; M 2.2; D 1.76
L5: P 2.31; H 1.34; I 1; C 3.99; A 2.14; Y 3.05; R 2.09; S 2.12; M 2.95; N 1.89; Q 1.65; D 1.89; T 1.48; G 2.8; E 1.69; K 3.21
P8: E 3.86; I 1.62; D 3.54; L 2.02; C 2.52; A 1.5
S3: D 2.96; I 2.51; M 2.73; P 1.35; A 2.75; V 3.21; F 3.67; Y 2.41; N 1.56; Q 1.86; L 3.13; G 3.59; K 1.13; T 1.38; H 2.4; R 2.83
T2: A 3.92; D 2.1; C 4.26; W 1.61; M 3.56; Y 4.43; K 1.57; E 2.15; N 2.52; G 3.56; Q 2.49; S 2.68; H 2.88
Y6: F 3.72; D 1.55; T 1.82; W 3.76; V 2.13; M 2.09; R 1.47; G 1.13; A 2.37; N 1.34; S 1.34; Q 2.01; P 1.98; C 2.31; E 2; H 2.34
A7: K 1.61; T 1.62; D 1.17; H 2.38; L 3.74; V 1.96; I 4.33; S 2.38; P 1.87; N 1.97; Q 2.86; C 2.42; R 3.29
